Experimental data reported in patent US7265263B1, “Potato transcription factors, methods of use thereof, and a method for enhancing tuber development” (Iowa State University Research Foundation, Inc., priority 2002, dated 2007).

What was measured:
[1] = target: T1, POTH1 in pBridge (full-length POTH1 fused with the GAL4 DNA-binding domain) (Solanum tuberosum); experiment: yeast two-hybrid deletion analysis
T1 construct: Bait of the yeast two-hybrid screen and partner of the StBEL-05 deletion constructs; also called pBHD; pBridge:POTH1
Text: The Matchmaker two-hybrid system (Clontech, Calif.) was used for the yeast two-hybrid screen. Yeast transformation and plasmid rescue into DH5-α *E. coli* cells were according to the manufacturer's instructions. Full-length POTH1 was cloned into the pBridge (Clontech, Calif.) vector and used as bait to screen the potato (*S. tuberosum* 'Desireé') stolon cDNA library in pAD-GAL4-2.1 (Stratagene, Calif.). Positive interactions were confirmed by cotransforming yeast strain AH109 with each purified pAD plasmid and pBridge: POTH1 and plating on -leucine/-tryptophan (transformation control) and -leucine/-tryptophan/-histidine/-adenine (selection) nutrient medium. Induction of the AH109 reporter gene, lacZ, was measured with a yeast β-galactosidase assay kit (Pierce Chemicals). β-galactosidase activity (FIG. 9B) was determined from a known density of yeast cells and calculated as 1000 ×OD420/time of color reaction (minutes)×volume of yeast culture (ml)×$OD600$.
The StBEL-05 deletion constructs were amplified by PCR, then cloned into the vector, pGAD, in-frame with the GAL4 activation domain. POTH1 deletion constructs were amplified by PCR, and cloned into pBridge (Clontech) in-frame with the GAL4 binding domain. Sequencing of selected cDNAs and constructs was performed at the Iowa State University DNA Facility. […]

[2] = target: T2, StBEL-05 in pBridge (fusion with the GAL4 DNA-binding domain) (Solanum tuberosum); experiment: yeast two-hybrid, swapped vectors
T2 construct: Swapped two-hybrid orientation; also called prey cDNA cloned into pBridge

[3] = system: StBEL-05; experiment: Yeast two-hybrid interaction of POTH1 deletion constructs with StBEL-05; assay type: binding, Solanum tuberosum; conditions: yeast AH109
Protocol: The StBEL-05 deletion constructs were amplified by PCR, then cloned into the vector, pGAD, in-frame with the GAL4 activation domain. POTH1 deletion constructs were amplified by PCR, and cloned into pBridge (Clontech) in-frame with the GAL4 binding domain. Sequencing of selected cDNAs and constructs was performed at the Iowa State University DNA Facility. For deletion analysis, modified constructs of POTH1 were cloned into the pBridge vector for fusion with the DNA-binding domain of GAL4 (FIG. 10A). For StBEL-05, constructs were cloned into the pGAD vector for fusion with the activating domain of GAL4 (FIG. 10B). Deletion constructs were made from both the amino and carboxy termini. These mutants were then tested for interaction in the yeast two-hybrid system by cotransforming into yeast strain AH109 with the corresponding full-length partner (StBEL-05 in pGAL4 or POTH1 in pBridge). All constructs were sequenced to verify that they were in-frame. Positive interactions were verified for lacZ induction by using a β-galactosidase assay (Pierce Chemical Company). For POTH1, seven deletion constructs were tested (FIG. 10A). For the BEL TFs, a fusion construct of StBEL-05 (653 aa of StBEL-05 sequence) and nine deletion constructs were tested (FIG. 10B).

[4] = system: StBEL-05; experiment: In vitro binding assay of POTH1 deletion constructs with StBEL-05; set-up: species or system Solanum tuberosum; conditions: in vitro binding protocol
Protocol: In vitro binding experiments were performed as described by Ni et al., “PIF3, a Phytochrome-Interacting Factor Necessary for Normal Photoinduced Signal Transduction, is a Novel Basic Helix-Loop-Helix Protein,” Cell 95:657-667 (1998), which is hereby incorporated by reference in its entirety. The full-length sequence for POTH1 was cloned into a pET17b/GAD fusion cassette and transcribed under the control of the T7 promoter. […] Each 50 μl TnT reaction contained 2.0 μg of template plasmid DNA and 20 μmol (20 μCi) of labeled ^35S-methionine. The POTH1:GAD/BEL complex was immunoprecipitated with anti-GAD antibodies (Santa Cruz Biotechnology, Calif.). The proteins from the pellet (one-half the fraction) and for the prey (one-fourth of the reaction volume) were resolved on a 10% SDS-PAGE gel and visualized by autoradiography. […] Control experiments identified the first 114 aa of the N-terminus (pBHD9) as a transcriptional activator. […] Co-transformation of pBHD9 with an empty pGAD cassette produced transformants capable of growth on -histidine, -tryptophan, -adenine, and -leucine medium and induction of lacZ. None of the other constructs containing this domain were capable of growing on selection media without StBEL-05.

B1: pAD5-2 (StBEL-05 deletion construct in pGAD) (other, not shown: small tags and cut ends)
chain: EEVEQRYRQYHHQMQIIVLSFEQVAGIGSAKSYTQLALHAISKQFRCLKDAIAEQVKATSKSLGEEEGLGGKIEGSRLKFVDHHLRQQRALQQIGMMQPNAWRPQRGLPERAVSVLRAWLFEHFLHPYPKDSDKIMLAKQTGLTRSQVSNWFINARVRLWKPMVEEMYLEEVKNQEQNSTNTSGDNKNKETNISAPNEEKHPIITSSLLQDGITTTQAEISTSTISTSPTAGASLHHAHNFSFLGSFNMDNTTTTVDHIENNAKKQRNDMHKFSPSSILSSVDMEAKARESSNKGFTNPLMAAYAMGDFGRFDPHDQQMTANFHGNNGVSLTLGLPPSENLAMPVSQQNYLSNDLGSRSEMGSHYNRMGYENIDFQSGNKRFPTQLLPDFVTGNLGT
notes: Residues converted from pAD-05 numbering
B1: no binding [1].

B2: pBHD9 construct cloned into the pGAD vector (other, not shown: large carriers)
chain: MDDEMYGFHSTRDDYADKALMSPENLMMQTEYNNFHNYTNSSILTSNPMMFGSDDIQLSSEQTNSFSTMTLQNNDNIYQIRSGNCGGGSGSGGSSKDHNDNNNNNEDYDEDGSN
notes: also called pBDH9 construct in pGAD
B2: no binding [2].

B3: pBHD-9: POTH1 deletion construct, first amino-terminal 114 aa, no KNOX domain sequence (protein)
chain: B2 chain
For B3, the “interaction with StBEL-05” value [3] was “Interaction with StBEL-05 was observed” and the “pull-down of StBEL-05” value [4] was “unable to pull-down StBEL-05”.
